The source of these data is patent US20130136735A1 (NKT THERAPEUTICS, published 2013).

One assay addresses T1, FcγRIII (human).
T1 construct: also called Fc-gamma-RIII
The experiment in a line: in vitro binding experiments, afucosylated against fucosylated IgG1; reference not named.

Assay [1] deals with T2, human FcγRI (human, UniProt P12314 16-288, limits assumed). As to the kind of experiment: ELISA.
The target in another assay is complement component C1q (human, UniProt P02745 23-245; P02746 28-253; P02747 29-245). The experiment in a line: ELISA.
Assay [2] deals with T3, recombinant soluble human iTCR (Hu-siTCR) (human).
T3 construct: Bought recombinant soluble heterodimer, coated on nickel (HIS-Select) plates; also called recombinant TCR heterodimer (Precision Antibody); purified TCR heterodimer
The experiment in a line: ELISA using Hu-siTCR.

Assay [3] concerns the target T3, recombinant soluble human iTCR …. The experiment in a line: SPR (BIAcore).
In assay [4] the target is T2, human FcγRI. The experiment in a line: summary of Example 2.
For assay [5], the target named is T3, recombinant soluble human iTCR …. As to the kind of experiment: competition ELISA on plate-bound recombinant TCR heterodimer; competitor biotinylated chimeric 6B11 IgG1; IC50 of test divided by IC50 of reference.
Assay [6] has as its target T2, human FcγRI. As to the kind of experiment: ELISA / BIAcore, not said which.

A value given as a limit tells only on which side of the number the result lay.

T2 sequence (P12314 16-288 limits assumed): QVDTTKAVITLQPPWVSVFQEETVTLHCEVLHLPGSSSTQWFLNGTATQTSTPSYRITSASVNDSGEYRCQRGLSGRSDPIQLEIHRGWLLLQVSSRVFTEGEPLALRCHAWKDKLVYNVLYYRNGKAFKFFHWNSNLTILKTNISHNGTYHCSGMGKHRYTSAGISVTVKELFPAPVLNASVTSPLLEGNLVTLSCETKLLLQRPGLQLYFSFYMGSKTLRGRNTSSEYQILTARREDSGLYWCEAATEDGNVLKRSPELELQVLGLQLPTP
Chain of complement component C1q (P02745 23-245 limits assumed, chain 1 of 3): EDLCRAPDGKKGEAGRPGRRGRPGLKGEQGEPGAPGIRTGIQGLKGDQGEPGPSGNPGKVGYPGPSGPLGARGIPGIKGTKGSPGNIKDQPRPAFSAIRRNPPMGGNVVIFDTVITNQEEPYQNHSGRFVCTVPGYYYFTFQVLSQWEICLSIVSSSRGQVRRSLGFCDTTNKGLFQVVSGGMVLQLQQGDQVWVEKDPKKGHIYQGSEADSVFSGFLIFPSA
Chain of complement component C1q (P02746 28-253 limits assumed, chain 2 of 3): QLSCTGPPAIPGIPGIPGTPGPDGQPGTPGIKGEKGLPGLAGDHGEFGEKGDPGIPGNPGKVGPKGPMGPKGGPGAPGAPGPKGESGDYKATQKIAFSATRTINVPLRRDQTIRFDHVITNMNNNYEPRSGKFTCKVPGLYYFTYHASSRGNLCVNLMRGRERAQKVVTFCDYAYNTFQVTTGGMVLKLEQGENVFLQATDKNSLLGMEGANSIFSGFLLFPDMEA
Chain of complement component C1q (P02747 29-245 limits assumed, chain 3 of 3): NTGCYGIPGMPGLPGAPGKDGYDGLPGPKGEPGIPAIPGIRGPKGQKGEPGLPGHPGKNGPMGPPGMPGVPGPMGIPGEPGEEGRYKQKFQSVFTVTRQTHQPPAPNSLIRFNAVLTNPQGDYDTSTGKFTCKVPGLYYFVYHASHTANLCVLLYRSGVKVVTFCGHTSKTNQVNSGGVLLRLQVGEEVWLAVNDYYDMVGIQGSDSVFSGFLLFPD
T1 sequence (P08637 17-208): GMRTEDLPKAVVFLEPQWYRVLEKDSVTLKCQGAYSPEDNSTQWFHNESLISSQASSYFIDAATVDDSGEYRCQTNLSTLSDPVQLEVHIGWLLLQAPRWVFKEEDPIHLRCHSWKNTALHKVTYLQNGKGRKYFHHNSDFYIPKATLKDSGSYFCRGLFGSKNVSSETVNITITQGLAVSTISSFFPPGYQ

B1: NKTT219 (antibody, human IgG1)
heavy: not shown
VL: DIVMTQSPSSLSASVGDRVTITCKASQDVSTAVAWYQQKPGQAPRLLIYWASTRHTGVPSRFSGSGSGTDFTLTISSLQPEDFALYYCQQHYSTPWTFGQGTKLEIK
modifications: non-fucosylated (afucosylated) carbohydrate in the Fc portion
notes: also called ADCC-enhanced humanized IgG1
For the molecule B1, the “fold improvement of binding” value in the assay with FcγRIII was no more than 100 fold.

B2: NKTT103 (6B11 chimeric IgG1 control antibody) (antibody)
heavy: not shown
light: DIVMTQSHKFMSTSVGDRVSITCKASQDVSTAVAWYQQKPGQSPKLLIYWASTRHTGVPDRFTGSGSGTDYTLTISSVQAEDLALYYCQQHYSTPWTFGGGTKLEIKRTVAAPSVFIFPPSDEQLKSGTASVVCLLNNFYPREAKVQWKVDNALQSGNSQESVTEQDSKDSTYSLSSTLTLSKADYEKHKVYACEVTHQGLSSPVTKSFNRGEC
notes: Murine 6B11 V regions on human IgG1; also called chimeric 6B11 IgG1; chimeric 6B11 mAb
Consider B2, for which the binding result in the assay with human FcγRI [1] and with complement component C1q was “binds” in each case. Further, in assay [2], the IC50 was 1 mg/L.

B3: NKTT120 (antibody, human IgG1, kappa)
heavy: not shown
light: DIQMTQSPSSLSASVGDRVTITCKASQDVSTAVAWYQQKPGQAPRLLIYWASTRHTGVPSRFSGSGSGTDFTLTISSLQPEDFALYYCQQHYSTPWTFGQGTKLEIKRTVAAPSVFIFPPSDEQLKSGTASVVCLLNNFYPREAKVQWKVDNALQSGNSQESVTEQDSKDSTYSLSSTLTLSKADYEKHKVYACEVTHQGLSSPVTKSFNRGEC
notes: Humanized IgG1 with VH4 and VK4; also called VH 4/VK4; VH 4/Vκ4
As to B3, in assay [3], the Kd was roughly 0.06 µM. In addition, in assay [2], the half-inhibitory concentration (IC50) stood at 0.2 mg/L. Further, in the assay with human FcγRI [4], the binding result is recorded as “binds”. The “Relative IC50” value in assay [5] is 0.212 ratio to chimeric 6B11 IgG1.

B4: NKTT320 (antibody, human IgG4 S228P, kappa)
heavy: not shown
light: DIQMTQSPSSLSASVGDRVTITCKASQDVSTAVAWYQQKPGQAPRLLIYWASTRHTGVPSRFSGSGSGTDFTLTISSLQPEDFALYYCQQHYSTPWTFGQGTKLEIKRTVAAPSVFIFPPSDEQLKSGTASVVCLLNNFYPREAKVQWKVDNALQSGNSQESVTEQDSKDSTYSLSSTLTLSKADYEKHKVYACEVTHQGLSSPVTKSFNRGEC
notes: also called modified IgG4 anti-iNKT mAb
Consider B4, for which the binding result with human FcγRI [6] is recorded as “no binding”.
